Here are results for one substance from patent US20090104147A1.

For assay [1], the target named is porcine sialoadhesin (pig) (UniProt A7LCJ3). Briefly: cell-based or functional assay.
Assay [2] deals with recombinant sialoadhesin expressed on CHO cells (CHO-Sn). Briefly: cell-based or functional assay.

With mAb 41D3/saporin conjugate, in assay [1], the % Living cells, primary porcine macrophages, conjugate concentration 0.3*10^-6 was found to be 30.4%; the % Living cells, primary porcine macrophages, conjugate concentration 10^-7 stood at 29.3%; the MTT assay OD value, primary porcine macrophages, column head 10 was determined as 0.537 OD; the MTT assay OD value, primary porcine macrophages, column head 30 came to 0.541 OD. Also, in assay [2], the % Living cells, CHO-Sn cells, conjugate concentration 0.1*10^-6 amounted to 64.4%; the % Living cells, CHO-Sn cells, conjugate concentration 0.25*10^-6 was determined as 57.1%; the % Living cells, CHO-Sn cells, conjugate concentration 0.5*10^-6 is 64.2%; the % Living cells, CHO-Sn cells, conjugate concentration 10^-7 worked out at 63%. Also, in assay [2], the MTT assay OD value, CHO-Sn cells, 25 turned out to be 1.35 OD; the MTT assay OD value, CHO-Sn cells, column head 6.25 was determined as 1.45 OD; the MTT assay OD value, CHO-Sn cells, column head 12.5 was found to be 1.47 OD; the MTT assay OD value, CHO-Sn cells, column head 50 was found to be 1.47 OD.
